Results reported in patent publication US20250002610A1 (Genmab, published 2025).
Substitutions are numbered along the chain they refer to.

T1: human DR4 (Death Receptor 4), cell surface expressed on human tumor cell lines (human, UniProt O00220 24-468)
T1 construct: also called TNFRSF10A; TRAIL-R1
T1 sequence: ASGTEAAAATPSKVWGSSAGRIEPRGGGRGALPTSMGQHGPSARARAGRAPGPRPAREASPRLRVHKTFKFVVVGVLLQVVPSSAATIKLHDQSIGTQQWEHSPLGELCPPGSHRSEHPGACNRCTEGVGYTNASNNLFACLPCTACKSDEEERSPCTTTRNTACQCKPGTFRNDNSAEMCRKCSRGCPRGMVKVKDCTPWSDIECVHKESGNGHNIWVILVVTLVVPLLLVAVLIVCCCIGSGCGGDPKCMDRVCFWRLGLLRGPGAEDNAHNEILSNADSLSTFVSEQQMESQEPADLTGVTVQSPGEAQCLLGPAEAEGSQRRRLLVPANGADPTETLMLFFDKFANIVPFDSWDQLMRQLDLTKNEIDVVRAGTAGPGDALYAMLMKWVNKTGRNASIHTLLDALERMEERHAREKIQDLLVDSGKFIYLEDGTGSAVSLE

T2: human FAPα (Fibroblast activation protein alpha), cell surface expressed (human, UniProt Q12884 1-760)
T2 construct: Endogenous on human lung fibroblasts and CAFs
T2 sequence: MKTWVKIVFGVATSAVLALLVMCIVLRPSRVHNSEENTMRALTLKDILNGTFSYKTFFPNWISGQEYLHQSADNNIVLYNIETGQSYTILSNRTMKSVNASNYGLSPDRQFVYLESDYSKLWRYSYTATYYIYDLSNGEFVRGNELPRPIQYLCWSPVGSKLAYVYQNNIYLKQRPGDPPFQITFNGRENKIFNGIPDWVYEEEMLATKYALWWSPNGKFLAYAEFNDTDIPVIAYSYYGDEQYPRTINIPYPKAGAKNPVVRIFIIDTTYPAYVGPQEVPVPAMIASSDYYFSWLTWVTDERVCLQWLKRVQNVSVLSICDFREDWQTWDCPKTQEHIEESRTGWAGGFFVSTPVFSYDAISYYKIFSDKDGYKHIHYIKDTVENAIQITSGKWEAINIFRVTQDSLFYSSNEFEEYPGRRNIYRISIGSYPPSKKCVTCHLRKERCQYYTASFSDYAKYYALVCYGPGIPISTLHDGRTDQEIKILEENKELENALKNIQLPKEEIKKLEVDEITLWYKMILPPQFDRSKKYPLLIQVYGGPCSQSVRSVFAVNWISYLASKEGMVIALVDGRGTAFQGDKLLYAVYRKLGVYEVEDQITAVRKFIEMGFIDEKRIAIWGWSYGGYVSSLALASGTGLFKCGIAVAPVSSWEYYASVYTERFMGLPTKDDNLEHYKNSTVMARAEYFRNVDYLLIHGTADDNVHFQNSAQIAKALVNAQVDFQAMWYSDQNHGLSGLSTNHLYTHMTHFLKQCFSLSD

B1: BisG1-b12-FEAL/DR4-chCTB007-FEAR (bispecific antibody, human IgG1, kappa)
heavy 1: QVQLVQSGAEVKKPGASVKVSCQASGYRFSNFVIHWVRQAPGQRFEWMGWINPYNGNKEFSAKFQDRVTFTADTSANTAYMELRSLRSADTAVYYCARVGPYSWDDSPQDNYYMDVWGKGTTVIVSSASTKGPSVFPLAPSSKSTSGGTAALGCLVKDYFPEPVTVSWNSGALTSGVHTFPAVLQSSGLYSLSSVVTVPSSSLGTQTYICNVNHKPSNTKVDKRVEPKSCDKTHTCPPCPAPEFEGGPSVFLFPPKPKDTLMISRTPEVTCVVVAVSHEDPEVKFNWYVDGVEVHNAKTKPREEQYNSTYRVVSVLTVLHQDWLNGKEYKCKVSNKALPAPIEKTISKAKGQPREPQVYTLPPSREEMTKNQVSLTCLVKGFYPSDIAVEWESNGQPENNYKTTPPVLDSDGSFLLYSKLTVDKSRWQQGNVFSCSVMHEALHNHYTQKSLSLSPG
light 1: EIVLTQSPGTLSLSPGERATFSCRSSHSIRSRRVAWYQHKPGQAPRLVIHGVSNRASGISDRFSGSGSGTDFTLTITRVEPEDFALYYCQVYGASSYTFGQGTKLERKRTVAAPSVFIFPPSDEQLKSGTASVVCLLNNFYPREAKVQWKVDNALQSGNSQESVTEQDSKDSTYSLSSTLTLSKADYEKHKVYACEVTHQGLSSPVTKSFNRGEC
heavy 2: EVQLQQSGAELVKPGASVKLSCTASGFNIKDTYMHWVKQRPEQGLEWIGRIDPANGNTKYDPKFQGKATITADTSSNTAYLQLSSLTSEDTAVYYCAYYYVSNAWFTYWGQGTLVTVSAASTKGPSVFPLAPSSKSTSGGTAALGCLVKDYFPEPVTVSWNSGALTSGVHTFPAVLQSSGLYSLSSVVTVPSSSLGTQTYICNVNHKPSNTKVDKRVEPKSCDKTHTCPPCPAPEFEGGPSVFLFPPKPKDTLMISRTPEVTCVVVAVSHEDPEVKFNWYVDGVEVHNAKTKPREEQYNSTYRVVSVLTVLHQDWLNGKEYKCKVSNKALPAPIEKTISKAKGQPREPQVYTLPPSREEMTKNQVSLTCLVKGFYPSDIAVEWESNGQPENNYKTTPPVLDSDGSFFLYSRLTVDKSRWQQGNVFSCSVMHEALHNHYTQKSLSLSPG
light 2: DIQMTQSPASLSVSVGETVTITCRASENIYSNLEWYQQKQGKSPQLLVYAATNLADGVPSRFSGSGSGTQYSLKINSLQSEDFGSYYCQHFWGTWTFGGGTKLEIKRTVAAPSVFIFPPSDEQLKSGTASVVCLLNNFYPREAKVQWKVDNALQSGNSQESVTEQDSKDSTYSLSSTLTLSKADYEKHKVYACEVTHQGLSSPVTKSFNRGEC
notes: Fab-arm exchange of IgG1-b12-FEAL and IgG1-DR4-chCTB007-FEAR
B2: BisG1-FAP5-FEAL/b12-FEAR (bispecific antibody, human IgG1, kappa)
heavy 1: QVQLQQSGAELARPGASVNLSCLASGYTFTNNGINWLKQRTGQGLEWIGEIYPRSTNTLYNEKFKGKATLTADRSSNTAYMELRSLTSEDSAVYFCARTLTAPFAFWGQGTLVTVSSASTKGPSVFPLAPSSKSTSGGTAALGCLVKDYFPEPVTVSWNSGALTSGVHTFPAVLQSSGLYSLSSVVTVPSSSLGTQTYICNVNHKPSNTKVDKRVEPKSCDKTHTCPPCPAPEFEGGPSVFLFPPKPKDTLMISRTPEVTCVVVAVSHEDPEVKFNWYVDGVEVHNAKTKPREEQYNSTYRVVSVLTVLHQDWLNGKEYKCKVSNKALPAPIEKTISKAKGQPREPQVYTLPPSREEMTKNQVSLTCLVKGFYPSDIAVEWESNGQPENNYKTTPPVLDSDGSFLLYSKLTVDKSRWQQGNVFSCSVMHEALHNHYTQKSLSLSPG
light 1: QIVLTQSPAIMSASPGELVTMTCSASSGVNFMHWYQQLSGTSPKRWIFDTSKLASGVPARFSGSGSGTSYSLTISSMEAEDAATYYCQQWSFNPPTFGGGTKLEIKRTVAAPSVFIFPPSDEQLKSGTASVVCLLNNFYPREAKVQWKVDNALQSGNSQESVTEQDSKDSTYSLSSTLTLSKADYEKHKVYACEVTHQGLSSPVTKSFNRGEC
heavy 2: B1 heavy 1 with L415F, K419R
light 2: B1 light 1
notes: Fab-arm exchange of IgG1-FAP5-FEAL and IgG1-b12-FEAR
B3: IgG1-DR4-T1014A04-FEAR (antibody, V domains shown)
VH: EVQLVQSGADVKRPGASVKVSCKISGDSFNAYFIHWVRQAPGQGLEWMGWFNPDSGTADSAQKFHGRVTMTRDTSSSTAFLELSRLRSDDTAVYYCVRQHRGNTFAPWGRGTMVTVSS
VL: QSVLTQPPSASGSPGQSVTISCTGTTSDVGGYNYVSWYQQHPGKAPKLMIYGVNQRPSGVPDRFSGSKSGNTASLTVSGLQAEDEADYYCSSYAGSNNWVFGGGTKLTVLG
notes: Prior art DR4 clone (US 7,361,341 B2)
B4: IgG1-FAPα-FEAL (antibody)
heavy: EVQLLESGGGLVQPGGSPRLSCEASGFTFSSYALSWVRQAPGKGLEWVSAISGSGGGRYYADSVKGRFTISRDNSKNTLFLQMNSLRAEDTAVYYCAKEGYSSSGTYWDHWGQGTLVTVSSASTKGPSVFPLAPSSKSTSGGTAALGCLVKDYFPEPVTVSWNSGALTSGVHTFPAVLQSSGLYSLSSVVTVPSSSLGTQTYICNVNHKPSNTKVDKRVEPKSCDKTHTCPPCPAPEFEGGPSVFLFPPKPKDTLMISRTPEVTCVVVAVSHEDPEVKFNWYVDGVEVHNAKTKPREEQYNSTYRVVSVLTVLHQDWLNGKEYKCKVSNKALPAPIEKTISKAKGQPREPQVYTLPPSREEMTKNQVSLTCLVKGFYPSDIAVEWESNGQPENNYKTTPPVLDSDGSFLLYSKLTVDKSRWQQGNVFSCSVMHEALHNHYTQKSLSLSPG
light: AIQMTQSPSSVSASVGDRVTITCRASQGVSSWLAWYQQKPGRAPKLLIYVASTLQSGVPSRFSGSGSGTDFTLTINSLQPEDFATYYCQQANSFPPTFGQGTRLEMKRTVAAPSVFIFPPSDEQLKSGTASVVCLLNNFYPREAKVQWKVDNALQSGNSQESVTEQDSKDSTYSLSSTLTLSKADYEKHKVYACEVTHQGLSSPVTKSFNRGEC

Tests used:
[1] = target: T1, human DR4 (Death Receptor 4), cell …; assay: flow cytometry, MDA-MB-231 cells, N = 1
[2] = target: T1, human DR4 (Death Receptor 4), cell …; assay: flow cytometry, MDA-MB-231 cells, N = 2
[3] = target: T1, human DR4 (Death Receptor 4), cell …; assay: flow cytometry, MDA-MB-231 cells, average ± SEM
[4] = target: T2, human FAPα (Fibroblast activation …); assay: flow cytometry, human lung fibroblasts, n = 2
Protocol: Human lung fibroblasts and CAFs (50,000 cells/well) were seeded in 96-Well round bottom plates (Greiner Bio-one, Cat #650101). Antibody dilutions were prepared using fluorescence-activated cell sorting (FACS) buffer, consisting of phosphate buffer saline (PBS, Lonza, Cat #BE17-517Q)+1% Bovine Serum Albumin (BSA, Roche, Cat #10735086001)+0.02% Sodium Azide (Bio-World, Cat #41920044-3). Plates were centrifuged, supernatant was removed, cells were resuspended in 50 μL of human Fc Block (BD, Cat #564220, diluted 1:100 in FACS buffer) and 50 μL of viability stain TO-PRO-3 Iodide (Thermo Fisher, Cat #T3605, diluted 1: 25,000 in FACS buffer), and incubated for 15 min at 4° C. Plates were washed three times with FACS buffer. Plates were centrifuged, supernatant was removed, cells were resuspended in 50 μL of antibody dilutions (concentration range 90-0.0005 μg/mL, three-fold dilution steps using FACS buffer) of BisG1-FAPα-FERL/DR4-FERR, BisG1-FAPα-FERL/b12-FERR, BisG1-b12-FERL/b12-FERR (top six concentrations only for CAFs culture) or IgG1-FAPα-FERL (top four concentrations only for CAFs culture) and incubated for 30 min at 4° C. Cells were washed three times with FACS buffer and resuspended in 50 μL of Fluorescein isothiocyanate (FITC)-labeled polyclonal antibody goat anti-mouse IgG1 (Jackson Immuno Research, Cat #109-096-097, diluted 1:100 in FACS buffer). […] Antibody binding to viable cells (TO-PRO-3 negative) was analyzed by flow cytometry on a FACSCelesta™ (BD biosciences) and data were processed using FlowJo_v10.8.1 (FlowJo LLC). Geomean fluorescence intensity, gMFI, was determined and visualized using GraphPad Prism. Binding curves were analyzed using nonlinear regression analysis. […]
(§1) Binding of FAPα-targeting monoclonal antibody clones, IgG1-FAPα-FEAL and IgG1-FAP5-FEAL, and bispecific antibodies carrying a binding arm derived from the two FAPα-binding clones (BisG1-FAPα-FEAL/b12-FEAR and BisG1-FAP5-FEAL/b12-FEAR) to human lung fibroblasts, which endogenously express FAPα, was compared and analyzed by flow cytometry.

[5] = target: T2, human FAPα (Fibroblast activation …); assay: flow cytometry, human lung fibroblasts, n = 1
Protocol: Human lung fibroblasts and CAFs (50,000 cells/well) were seeded in 96-Well round bottom plates (Greiner Bio-one, Cat #650101). Antibody dilutions were prepared using fluorescence-activated cell sorting (FACS) buffer, consisting of phosphate buffer saline (PBS, Lonza, Cat #BE17-517Q)+1% Bovine Serum Albumin (BSA, Roche, Cat #10735086001)+0.02% Sodium Azide (Bio-World, Cat #41920044-3). Plates were centrifuged, supernatant was removed, cells were resuspended in 50 μL of human Fc Block (BD, Cat #564220, diluted 1:100 in FACS buffer) and 50 μL of viability stain TO-PRO-3 Iodide (Thermo Fisher, Cat #T3605, diluted 1: 25,000 in FACS buffer), and incubated for 15 min at 4° C. Plates were washed three times with FACS buffer. Plates were centrifuged, supernatant was removed, cells were resuspended in 50 μL of antibody dilutions (concentration range 90-0.0005 μg/mL, three-fold dilution steps using FACS buffer) of BisG1-FAPα-FERL/DR4-FERR, BisG1-FAPα-FERL/b12-FERR, BisG1-b12-FERL/b12-FERR (top six concentrations only for CAFs culture) or IgG1-FAPα-FERL (top four concentrations only for CAFs culture) and incubated for 30 min at 4° C. Cells were washed three times with FACS buffer and resuspended in 50 μL of Fluorescein isothiocyanate (FITC)-labeled polyclonal antibody goat anti-mouse IgG1 (Jackson Immuno Research, Cat #109-096-097, diluted 1:100 in FACS buffer). After 30 min incubation at 4° C., cells were washed twice with FACS buffer and resuspended in FACS buffer. Antibody binding to viable cells (TO-PRO-3 negative) was analyzed by flow cytometry on a FACSCelesta™ (BD biosciences) and data were processed using FlowJo_v10.8.1 (FlowJo LLC). Geomean fluorescence intensity, gMFI, was determined and visualized using GraphPad Prism. Binding curves were analyzed using nonlinear regression analysis. The concentration (pg/mL) at which 50% of the maximal effect was observed (EC₅₀) was derived from the fitted curves.
as §1

| Binder | EC50 [1] [µg/mL] | Max MFI (at 90 µg/mL) [1] [MFI] | EC50 [2] [µg/mL] | Max MFI (at 90 µg/mL) [2] [MFI] | EC50 [3] [µg/mL] | Max MFI (at 90 µg/mL) [3] [MFI] | EC50 [4] [µg/mL] | EC50 [5] [µg/mL] |
| --- | --- | --- | --- | --- | --- | --- | --- | --- |
| B1 | 1.61 | 2950 | 2.68 | 2160 | 2.14 | 2550 | – | – |
| B2 | – | – | – | – | – | – | 0.62 | 0.58 |
| B3 | 0.45 | 953 | 2.04 | 1610 | 1.25 | 1280 | – | – |
| B4 | – | – | – | – | – | – | – | 0.014 |
